Assay results taken from article PMC8024055 (Nature, 2020).
Changes are numbered by the printed parent chain. Names and notes keep the numbering of the source.

B1: KEAP1^48-180 S172A (recombinant BTB domain, called wild type) (domain or fragment)
chain: GNRTFSYTLEDHTKQAFGIMNELRLSQQLCDVTLQVKYQDAPAAQFMAHKVVLASSSPVFKAMFTNGLREQGMEVVSIEGIHPKVMERLIEFAYTASISMGEKCVLHVMNGAVMYQIDSVVRACADFLVQQLD
B2: KEAP1^48-180 S172A/V98A (recombinant BTB domain) (domain or fragment)
chain: B1 chain with V51A
B3: KEAP1^48-180 S172A/F64A/R116C labeled with Alexa Fluor 555 or Alexa Fluor 647 (domain or fragment)
chain: B1 chain with F17A, R69C
B4: KEAP1^48-180 S172A/F64A (recombinant BTB domain) (domain or fragment)
chain: B1 chain with F17A

Key:
SEC = molecular target: the molecule itself; experiment: SEC
[1] = molecular target: T1, His-MBP-FBXL17^310-701/Skp1 complex ( | human, UniProt Q9UF56;P63208); experiment: FRET or BRET
FRET or BRET = molecular target: the molecule itself; experiment: FRET or BRET
[2] = molecular target: T1, His-MBP-FBXL17^310-701/Skp1 complex; experiment: pull-down
[3] = molecular target: FBXL17^310-701 (tags removed, in the structures) (UniProt Q9UF56 310-701); experiment: crystal structure
Chain of FBXL17^310-701 (tags removed, in the structures) (Q9UF56 310-701): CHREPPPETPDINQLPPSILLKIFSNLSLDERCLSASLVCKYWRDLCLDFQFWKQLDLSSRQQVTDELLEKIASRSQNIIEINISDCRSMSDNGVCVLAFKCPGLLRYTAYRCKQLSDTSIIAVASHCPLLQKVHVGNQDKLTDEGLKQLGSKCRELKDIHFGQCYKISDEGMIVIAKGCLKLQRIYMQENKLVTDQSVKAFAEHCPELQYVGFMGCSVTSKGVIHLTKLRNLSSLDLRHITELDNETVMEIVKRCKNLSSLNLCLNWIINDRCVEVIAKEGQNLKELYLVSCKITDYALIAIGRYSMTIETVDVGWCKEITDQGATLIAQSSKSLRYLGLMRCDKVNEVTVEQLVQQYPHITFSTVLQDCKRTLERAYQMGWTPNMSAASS

T1 sequence (Q9UF56 310-701, chain 1 of 2): as the sequence (Q9UF56 310-701) above
T1 sequence (P63208 whole entry, chain 2 of 2): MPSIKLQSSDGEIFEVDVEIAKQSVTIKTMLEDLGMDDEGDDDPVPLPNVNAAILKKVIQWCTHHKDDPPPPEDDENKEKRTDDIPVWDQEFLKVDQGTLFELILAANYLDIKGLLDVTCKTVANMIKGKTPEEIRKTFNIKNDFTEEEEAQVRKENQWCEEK

Row | Binder | stoichiometry N (SEC) | binding result [1] | binding result (FRET or BRET) | binding result [2] | binding result [3]
1 | B1 | 2 |  |  |  | 
2 | B2 | 2 |  |  |  | 
3 | B3 |  | binds | binds |  | 
4 | B4 | 2 |  |  | binds | binds
